Assay results reported in PMC9678781 (The Journal of Biological Chemistry, 2022).

Key:
[1] = biological target: SARS-CoV-2 Spike S1 subdomain (aa 2-682), 8xHis-tagged (SARS-CoV-2 Wuhan-Hu-1, UniProt P0DTC2); experiment: flow cytometry on cells; conditions: one partner purified
[2] = biological target: SARS-CoV-2 Spike S2 subdomain (aa 686-1211), 8xHis-tagged (SARS-CoV-2 Wuhan-Hu-1, UniProt P0DTC2); experiment: flow cytometry on cells; conditions: one partner purified

B1: B9-scFv displayed on the 293T cell surface (pBovShow) (scFv)
VH: QVQLRESGPSLVKPSQTLSLTCTASGFSLSDKAVGWVRQAPGKALEWLGGIDTGGSTGYNPGLKSRLSITKDNSKSQISLSVSSVTTEDSATYYCTTVHQRDSCPYDSSHSQYCSYGWSCGVYNCRPAVWYRYGSCGTCDNLFSYVDAWGQGLLVTVSS
VL: QAVLNQPSSVSGSLGQRVSITCSGSSSNVGNGYVSWYQLIPGSAPRTLIYGDTSRASGVPDRFSGSRSGNTATLTISSLQAEDEADYFCASAEDSSSNAVFGSRTTLTVL
binding result [1]: binds
binding result [2]: no binding (tested: 2 μM)
